Experiment [1] addresses CD16A (UniProt P08637). Nature of the experiment: flow cytometry, 2ug/reaction; Jurkat-Lucia-NFAT-CD16 cells; anti-his 2o only 18,863.83.
In experiment [2] the target is CD16A (UniProt P08637). Nature of the experiment: flow cytometry; Jurkat Lucia CD16A; only anti-his 2o AF647 652513 7,290.88. (Flow cytometry measures light scatter and fluorescence of single cells or particles in a stream.)
The target of experiment [3] is human Claudin-18.2 (CLDN18.2) (human). The experiment is described as follows: flow cytometry; HUPT4 (CLDN18.2+); only anti-his 2o AF647 652513 12,046.33; same construct on ARK2 (CLDN18.2-) 39,787.16 (2o only 36,416.11).
Experiment [4] has the same target. The experiment is described as follows: flow cytometry, 2ug/reaction, trypsin to detach cells; HUPT4 cells; anti-his 2o only 12,730.43; same construct on ARK2 cells 37,777.38 (2o only 35,124.48).
Another experiment addresses CD3 on Jurkat cells (UniProt P07766). Nature of the experiment: flow cytometry, Jurkat cells, anti-His secondary; A01 Jurkat-2o alone 1,501.76.

The source of these data is patent US11834499.

Chain of CD16A (P08637 17-254 limits assumed, form in doubt): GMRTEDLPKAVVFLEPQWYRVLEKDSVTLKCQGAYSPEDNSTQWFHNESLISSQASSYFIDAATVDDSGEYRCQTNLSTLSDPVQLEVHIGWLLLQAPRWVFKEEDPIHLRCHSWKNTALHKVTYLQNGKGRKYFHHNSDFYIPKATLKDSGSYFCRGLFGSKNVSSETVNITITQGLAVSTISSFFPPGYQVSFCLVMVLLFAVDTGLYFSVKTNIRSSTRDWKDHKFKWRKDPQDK
Chain of CD3 on Jurkat cells (P07766 23-207 limits assumed): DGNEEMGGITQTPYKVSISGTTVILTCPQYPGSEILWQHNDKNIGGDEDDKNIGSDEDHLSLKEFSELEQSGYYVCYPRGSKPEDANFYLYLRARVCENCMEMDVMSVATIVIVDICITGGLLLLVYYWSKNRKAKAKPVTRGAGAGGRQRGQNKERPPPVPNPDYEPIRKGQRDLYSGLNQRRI

Consider “AFM13 (CD16A-CD30 BiTE) his tagged (bispecific antibody)”, for which the flow cytometry signal with CD16A [1] worked out at 76500; in the experiment with CD16A [2], 23500; in experiment [3], 8940; in experiment [4] it was 15700.
In turn, Blincyto-His tag (bispecific antibody) yielded an FL4-H value printed beside the legend with CD3 on Jurkat cells of 16300.
